B1: Retinoic acid receptor beta, residues 85 to 161; numbered along this chain, P10826 (parent)
chain: YKPCFVCQDKSSGYHYGVSACEGCKGFFRRSIQKNMIYTCHRDKNCVINKVTRNRCQYCRLQKCFEVGMSKESVRND

Variants of: B1
Test: abundance fitness (aPCA) (normalised: wild type 0, dead -1); higher = more abundant; growth selection in yeast, the domain comes from the species named
Details: Homo sapiens

Abundance fitness, by site and new letter:
R55: P 0.218 | H 0.205 | S 0.265 | F -0.343 | G 0.262 | E 0.277 | V 0.227 | D 0.244 | K 0.198 | I 0.155 | A 0.18 | N 0.26 | W 0.149 | L 0.183 | Y 0.077 | M 0.25 | T 0.239 | C 0.102
K50: H 0.094 | P 0.09 | I 0.244 | Y 0.126 | W 0.25 | C -0.218 | G 0.153 | Q 0.158 | T 0.125 | S 0.231 | D 0.225 | M 0.124 | R 0.153 | A 0.145 | V 0.208 | N 0.021
C59: E -0.916 | H -0.817 | F -0.872 | K -0.998 | I -0.494 | A -0.619 | G -0.758
R53: M 0.195 | N 0.123 | A 0.183 | P 0.103 | D -0.018 | W -0.026 | S 0.126 | Y 0.116 | H 0.016 | K 0.071 | V 0.211 | F 0.057 | Q 0.19 | G 0.003 | L 0.148 | T -0.002 | E 0.102 | C 0.084 | I 0.127
Q57: C 0.078 | Y 0.163 | N -0.021 | D 0.353 | W 0.104 | A 0.158 | V -0.385 | S 0.144 | T -0.251 | E 0.268 | G 0.2 | P 0.141 | K -0.245 | H 0.079
C56: D -0.623 | G -0.773 | Y -0.567 | K -0.978 | W -0.893 | S -0.749 | E -0.703 | M -0.768 | L -0.907 | F -0.946 | T -0.668 | R -0.928 | P -0.763 | N -0.953 | A -1.16 | I -1.05 | H -0.581
V51: C -0.249 | D 0.255 | N -0.014 | R -0.146 | K -0.013 | L 0.238 | Y -0.003 | Q 0.076 | T 0.019 | W 0.282 | F 0.13 | A -0.115 | P -0.218 | S 0.011 | I 0.073 | E 0.171 | M 0.166
T52: S 0.032 | R -0.745 | V -0.021 | F -0.188 | W -0.047 | Q 0.027 | D 0.046 | N 0.023 | M 0.02 | H -0.397 | I -0.053 | K -0.015 | G -0.029 | L 0.038 | C -0.451 | E 0.123
N49: T 0.017 | R -0.43 | P -0.431 | V -0.546 | Q -0.328 | W -0.327 | Y -0.37 | S -0.116
N54: H 0.067 | P -0.003 | S 0.136 | G -0.007 | V 0.11 | F 0.089 | C -0.267 | W -0.088 | Q 0.183 | M 0.216 | D 0.345 | A 0.074 | K 0.183 | R 0.036 | T 0.185 | I 0.233 | Y 0.112 | E 0.217
Y58: K -0.147 | H -0.111 | C 0.046 | D -0.131 | W 0.107 | L -0.545 | A 0.107 | P -1.13 | G -0.134 | Q -0.259 | E -0.214 | I -0.898 | R -0.325 | N -0.634 | V -0.679 | T -0.501 | M -0.237

Reference: the Human Domainome abundance scans (Beltran et al. 2025)
